The values that follow come from patent publication US20140237632A1 (UNIVERSITY OF CHICAGO, published 2014).

Data set [1] concerns the molecule itself. The experiment in a line: self-association; FRET in spectra and nondenaturing SDS-PAGE.
Data set [2] concerns the molecule itself. The data set is described as follows: self-association; nondenaturing SDS-PAGE. The method, then: FIG. 4. Decreasing the net charge near the N terminus of DsRed reduces aggregation of the protein. (A) Nondenaturing SDS-PAGE of purified DsRed1 (WT), the Round 1 variant (R1), the Round 3 variant (R3), the Round 4 variant (R4), DsRed.T1 (T1), DsRed.T3 (T3) and DsRed.T4 (T4). 1 μg of each purified DsRed variant was mixed with SDS-containing sample buffer on ice and immediately electrophoresed at 4° C. in a 10% poly-acrylamide gel, followed by staining with Coomassie Blue. WT* and T4*: Additional aliquots of DsRed1 and DsRed.T4 were denatured by boiling prior to electrophoresis. MW: broad range prestained protein standard (Bio-Rad). (B) To measure the solubilities of the fluorescent proteins in E. coli, cells carrying pREP4 plus pQE31-based expression vectors encoding DsRed1, DsRed2, the Round 3 variant, the Round 4 variant, or EGFP were grown to an OD₆₀₀ of 0.5, induced with IPTG for 7 h, then lysed with B-PER II and centrifuged for 20 min at 27,000×g. […] The bound antibody was detected using the ECL-Plus kit (Amersham) and a Molecular Dynamics Storm 860 phosphorimager. For each fluorescent protein, a dilution series from the bacterial extract was analyzed, and a sample within the linear range for the detection system was chosen. The percentage of each protein in the supernatant fraction was then quantified. […]

B1: DsRed.T3 (other)
chain: MASSEDVIKEFMRFKVRMEGSVNGHEFEIEGEGEGRPYEGTQTAKLKVTKGGPLPFAWDILSPQFQYGSKVYVKHPADIPDYKKLSFPEGFKWERVMNFEDGGVVTVTQDSSLQDGCFIYKVKFIGVNFPSDGPVMQKKTMGWEPSTERLYPRDGVLKGEIHKALKLKDGGHYLVEFKSIYMAKKPVQLPGYYYVDSKLDITSHNEDYTIVEQYERTEGRHHLFL
notes: Fluorescent protein variant, purified with a hexahistidine tag from E. coli; Entered only for its self-association (tetramer); not shown: N-terminal hexahistidine tag (pQE31) and polylinker upstream of the start codon, carrying P(-4)L
Turning to B1, the binding result in data set [1] is on record as “binds”.

B2: DsRed.T4 (other)
chain: MASSEDVIKEFMRFKVRMEGSVNGHEFEIEGEGEGRPYEGTQTAKLKVTKGGPLPFAWDILSPQFQYGSKVYVKHPADIPDYKKLSFPEGFKWERVMNFEDGGVVTVTQDSSLQDGCFIYKVKFIGVNFPSDGPVMQKKTMGWEPSTERLYPRDGVLKGEIHKALKLKDGGHYLVEFKSIYMAKKPVQLPGYYYVDSKLDITSHNEDYTIVEQYERAEGRHHLFL
notes: as for B1
B2: the binding result in data set [1] is reported as “binds”.

B3: DsRed Round 4 variant (other)
chain: MASSEDVIKEFMRFKVRMEGSVNGHEFEIEGEGEGRPYEGTQTAKLKVTKGGPLPFAWDILSPQFQYGSKVYVKHPADIPDYKKLSFPEGFKWERVMNFEDGGVVTVTQDSSLQDGCFIYKVKFIGVNFPSDGPVMQKKTMGWEASTERLYPRDGVLKGEIHKALKLKDGGHYLVEFKSIYMAKKPVQLPGYYYVDSKLDITSHNEDYTIVEQYERTEGRHHLFL
notes: Round 3 variant plus R2A, K5E and N6D; also called R4; not shown: N-terminal hexahistidine tag (pQE31) and polylinker upstream of the start codon, carrying P(-4)L
As to B3, the binding result in data set [2] is “binds”.
